doi:10.1101/2024.07.24.604955, “Unraveling the Role of Ctla-4 in Intestinal Immune Homeostasis: Insights from a novel Zebrafish Model of Inflammatory Bowel Disease” (bioRxiv, 2024)

Legend:
[1] = molecular target: T1, Ctla-4 with EGFP-tag (labeled protein of the MST assay) (zebrafish); experiment: MST; Monolith NT.115; labeled proteins (Cd28/Ctla-4 with EGFP-tag) incubated with 16 doubling dilutions of unlabeled Cd80/86 from 3.2 µM, 10 min at room temperature; 25℃, 40% LED, medium MST power
T1 construct: zebrafish Ctla-4 (XM_005167519.4)

[2] = molecular target: T2, Cd28 with EGFP-tag (labeled protein of the MST assay) (zebrafish); experiment: as above
T2 construct: zebrafish Cd28; identifier not given
T2 sequence (partner, as listed by the source): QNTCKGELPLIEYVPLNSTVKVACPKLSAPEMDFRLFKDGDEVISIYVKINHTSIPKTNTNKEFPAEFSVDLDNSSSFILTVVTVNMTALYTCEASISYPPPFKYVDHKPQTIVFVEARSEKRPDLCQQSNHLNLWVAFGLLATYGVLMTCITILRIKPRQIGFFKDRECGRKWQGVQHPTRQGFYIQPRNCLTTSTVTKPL

T1 sequence (partner, as listed by the source): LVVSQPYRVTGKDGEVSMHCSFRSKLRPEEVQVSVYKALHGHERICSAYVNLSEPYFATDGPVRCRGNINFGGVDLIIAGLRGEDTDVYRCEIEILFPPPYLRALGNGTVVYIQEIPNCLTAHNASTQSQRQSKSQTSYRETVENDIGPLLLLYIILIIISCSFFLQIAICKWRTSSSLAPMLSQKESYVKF

Kd [1]: 500 nM | Kd [2]: 2640 nM
B1: soluble Cd80/86 (extracellular domain) (domain or fragment)
chain: DNSQPKNISAVVGRSVTFRCPWNLSIPVYRLYIQKLENQPLFINGFNNGKKLPVSPEYQDRTEVNQAELSMEMTNIKLSDEGSYECVVFSSTSSRDIFQINLKVTAEFTTPESKSECSENDGAKKGRSCQMSCSAAGGYPVSDVKWLGLNQSRIRVLQNETAENSTSKTWSVNQTINYTCEHPINVSCDIGGSDSHTITICEAESFPLK
